Data: paper PMC5787919, “A feedback regulatory model for RifQ-mediated repression of rifamycin export in Amycolatopsis mediterranei” (Microbial Cell Factories, 2018)

Biological target: the molecule itself
Experiment: SEC; gel filtration on Superdex 75, calibrated with the Low Molecular Weight kit (aprotinin 6.5 KD, ribonuclease A 14 KD, ovalbumin 44 KD; Blue Dextran 2000 for the void); molecular weight calculated from the retention time

B1: RifQ, TetR-family transcriptional regulator of Amycolatopsis mediterranei S699 (natural protein, UniProt O52558 1-242, looked up)
chain: MGKRASQPRESVWLSPRPARKHRAGESELDREKIVATAVRVLDAEGDAKFSMRLLAEELNVTPMSVYWYVANKDDLLELALDAVAGEIELPSLDDGNDWREDLRALARAWRRTMVAHPWAIRCYGEYLNIGPSSLRFTECAQAVMACSPLPLKDRSAALNVVFQYVYGFTATESRWLEHLAETGRTAEEFAAEVTGSMAAMSSTLEQGGLLERDGDQSMEQLRDRDFDRGLNWLFTGMVAGG
notes: RifQ, TetR-family regulator encoded in the rifamycin biosynthetic (rif) cluster of Amycolatopsis mediterranei S699; Cloning between NdeI and XhoI of pET22b would usually give a C-terminal His6 tag (surmised); also called His-tagged RifQ; recombinant RifQ; source: E. coli BL21(DE3), pET22b-RifQ, purified (Ni-NTA gravity column)
- stoichiometry N: 2
